This is an account of results in patent US20240158500A1 (UCL BUSINESS, published 2024).

Test [1] addresses human CD160, GPI-anchored isoform, on engineered cells (SupT1, 293T) (human) (UniProt O95971). In words: flow cytometry, BY55-IgM-PE. The thick histogram (SupT1 CD160) peaks at about 10^4, the thin one (SupT1 negative) below 10^2 [Continued) B]. A general note: In flow cytometry, cells or beads pass a laser one at a time.
The target is the same in test [2]. Briefly: flow cytometry, 293T cells transiently transfected with pVAC2 human CD160; the same quadrant on non-transfected 293T cells prints 0.071.
Test [3] has the same target. In words: flow cytometry, 293T cells transiently transfected with pVAC2 human CD160; the same quadrant on non-transfected 293T cells prints 1.53.

For the substance commercial anti-CD160 antibody BY55, the CD160+ (gate, share of cells) in test [1] came out at 92.9. The Q2 (anti-CD160-PE positive, blank channel positive), share of cells in test [2] was 14%. This substance showed a Q1 (anti-CD160-PE positive, blank channel negative), share of cells in test [3] of 66%.
